Here are results for 1 molecule from patent US20200291391A1, “CROSS-LINKED EPITOPES AND METHODS OF USE THEREOF” (Indi Molecular, Inc., priority 2019, published 2020).

For orientation: EC50 means the concentration at which the effect is half-maximal. Higher therefore signals lower potency in that assay.

The target of the experiment is human CD8α/β (human), P01732. The experiment can be described thus: ELISA on CD8αβ.
Chain of human CD8α/β (human), P01732 (P01732 22-182, chain 1 of 2): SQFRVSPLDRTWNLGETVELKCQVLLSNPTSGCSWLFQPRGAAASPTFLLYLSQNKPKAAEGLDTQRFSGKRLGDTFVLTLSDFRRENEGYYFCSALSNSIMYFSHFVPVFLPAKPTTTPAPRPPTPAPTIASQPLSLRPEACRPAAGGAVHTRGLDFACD
Chain of human CD8α/β (human), P01732 (P10966 22-170, chain 2 of 2, further chain): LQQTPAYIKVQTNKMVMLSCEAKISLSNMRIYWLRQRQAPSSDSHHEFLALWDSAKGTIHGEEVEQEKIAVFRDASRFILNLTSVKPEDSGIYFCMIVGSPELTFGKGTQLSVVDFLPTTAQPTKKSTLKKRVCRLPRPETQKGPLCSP

As for KHYTN (modifications not checked) [khytn (SEQ ID NO:82)], the EC50 worked out at 6 µM.
